Tested on: CCCCC[C@H](O)/C=C/[C@H]1[C@H](O)CC(=O)[C@@H]1C/C=C\CCCC(=O)O
Test: cells, lysate or membranes

Q: How did the Km turn out when “prostaglandin transporter PGT (OATP2A1) (Homo sapiens; S346A)” was run?
A: 1.14 µM

Reference: publication PMC12789631
